Results on 33 molecules are retold here after patent US20250206818A1 (AGENUS, published 2025).

B1: P13B02-12 (antibody, IgG1, V domains shown)
VH: QVQLVQSGAEVKKPGASVKVSCKASGFNIKDTYIHWVRQAPGQGLEWMGEIDPANDNTKYDPKFQGRVTITADTSSNTVYMELSSLRSEDTAVYYCATYYYRYDVGGFDYWGQGTLVTVSS
VL: EIVLTQSPGTLSLSPGERATLSCSVSSSISSSNLHWYQQKPGQAPRLLIYGTSNLASGIPDRFSGSGSGTSYTLTISRLEPEDFAVYYCQQWSSYPFTFGQGTKVEIK
notes: Humanized; generated as full length IgG1
B2: P13B02-34 (antibody, IgG1, V domains shown)
VH: B1 VH with V5K, S76T, N77S, R102K
VL: B1 VL with S71D, Y72F
notes: as for B1
B3: P13B02-09 (antibody, IgG1, V domains shown)
VH: B1 VH with S76T, N77S
VL: B1 VL with V3L, Y37F, L48W, I59V
notes: as for B1
B4: P13B02-23 (antibody, IgG1, V domains shown)
VH: B1 VH with L4M, V5K, K12V, K23T, M48I, M81L, E82Q
VL: B1 VL with V3L, Y37F
notes: as for B1
B5: P13B02-20 (antibody, IgG1, V domains shown)
VH: B1 VH with L4M, V5K, K23T
VL: B1 VL with V3L, S22T, Y37F, A44S, L48W, I59V
notes: as for B1
B6: P13B02-18 (antibody, IgG1, V domains shown)
VH: B1 VH with L4M, V5K, K23T
VL: B1 VL with V3L, Y37F
notes: as for B1
B7: P13B02-05 (antibody, IgG1, V domains shown)
VH: B1 VH with I70M, A72R, S76T, N77S, T98R
VL: B1 VL with V3L, S22T, Y37F, A44S, L48W, I59V
notes: as for B1
B8: P13B02-19 (antibody, IgG1, V domains shown)
VH: B1 VH with L4M, V5K, K23T
VL: B1 VL with V3L, Y37F, L48W, I59V
notes: as for B1
B9: P13B02-14 (antibody, IgG1, V domains shown)
VH: B1 VH
VL: B1 VL with V3L, Y37F, L48W, I59V
notes: as for B1
B10: P13B02-28 (antibody, IgG1, V domains shown)
VH: B1 VH with S76T, N77S, R102K
VL: B1 VL with S71D, Y72F
notes: as for B1
B11: P13B02-36 (antibody, IgG1, V domains shown)
VH: B1 VH with R102K
VL: B1 VL with S71D, Y72F
notes: as for B1
B12: P13B02-29 (antibody, IgG1, V domains shown)
VH: B1 VH with K23T, S76T, N77S, R102K
VL: B1 VL with S71D, Y72F
notes: as for B1
B13: P13B02-35 (antibody, IgG1, V domains shown)
VH: B1 VH with V5K, K23T, S76T, N77S, R102K
VL: B1 VL with S71D, Y72F
notes: as for B1
B14: P13B02-01 (antibody, IgG1, V domains shown)
VH: B1 VH with I70M, A72R, S76T, N77S, T98R
VL: B1 VL with S71D, Y72F
notes: as for B1
B15: P13B02-37 (antibody, IgG1, V domains shown)
VH: B1 VH with L4M, V5K, K23T, R102K
VL: B1 VL with S71D, Y72F
notes: as for B1
B16: P13B02-31 (antibody, IgG1, V domains shown)
VH: B1 VH with L4M, K23T, S76T, N77S, R102K
VL: B1 VL with S71D, Y72F
notes: as for B1
B17: P13B02-30 (antibody, V domains shown)
VH: B1 VH with L4M, S76T, N77S, R102K
VL: B1 VL with S71D, Y72F
notes: Humanized full length IgG1; made in three versions (G1m17; G1m17 N297A; G1m3 N297A)
B18: P13B02-15 (antibody, IgG1, V domains shown)
VH: B1 VH
VL: B1 VL with V3L, S22T, Y37F, A44S, L48W, I59V
notes: as for B1
B19: P13B02-21 (antibody, IgG1, V domains shown)
VH: B1 VH with L4M, V5K, K12V, K23T, M48I, M81L, E82Q
VL: B1 VL with S71D, Y72F
notes: as for B1
B20: P13B02-32 (antibody, IgG1, V domains shown)
VH: B1 VH with L4M, V5K, S76T, N77S, R102K
VL: B1 VL with S71D, Y72F
notes: as for B1
B21: P13B02-24 (antibody, IgG1, V domains shown)
VH: B1 VH with L4M, V5K, K12V, K23T, M48I, M81L, E82Q
VL: B1 VL with V3L, Y37F, L48W, I59V
notes: as for B1
B22: P13B02-13 (antibody, IgG1, V domains shown)
VH: B1 VH
VL: B1 VL with V3L, Y37F
notes: as for B1
B23: P13B02-17 (antibody, IgG1, V domains shown)
VH: B1 VH with L4M, V5K, K23T
VL: B1 VL
notes: as for B1
B24: P13B02-04 (antibody, IgG1, V domains shown)
VH: B1 VH with I70M, A72R, S76T, N77S, T98R
VL: B1 VL with V3L, Y37F, L48W, I59V
notes: as for B1
B25: P13B02-08 (antibody, IgG1, V domains shown)
VH: B1 VH with S76T, N77S
VL: B1 VL with V3L, Y37F
notes: as for B1
B26: P13B02-02 (antibody, IgG1, V domains shown)
VH: B1 VH with I70M, A72R, S76T, N77S, T98R
VL: B1 VL
notes: as for B1
B27: P13B02-11 (antibody, IgG1, V domains shown)
VH: B1 VH
VL: B1 VL with S71D, Y72F
notes: as for B1
B28: P13B02-10 (antibody, IgG1, V domains shown)
VH: B1 VH with S76T, N77S
VL: B1 VL with V3L, S22T, Y37F, A44S, L48W, I59V
notes: as for B1
B29: P13B02-33 (antibody, IgG1, V domains shown)
VH: B1 VH with L4M, V5K, K23T, S76T, N77S, R102K
VL: B1 VL with S71D, Y72F
notes: as for B1
B30: P13B02-22 (antibody, IgG1, V domains shown)
VH: B1 VH with L4M, V5K, K12V, K23T, M48I, M81L, E82Q
VL: B1 VL
notes: as for B1
B31: P13B02-03 (antibody, IgG1, V domains shown)
VH: B1 VH with I70M, A72R, S76T, N77S, T98R
VL: B1 VL with V3L, Y37F
notes: as for B1
B32: P05E03 Fab (Fab, V domains shown)
VH: QVQLKESGAELVKPGASVELSCTASGFNIRDTYMYWVKQRPEQGLEWIGRIDPANGNTKFDPKFQDRATMTADTSSNTAYLQLSSLTSEDTAVYYCTTYFYRYDVGGFDYWGQGTTLTVS
VL: EIVLTQSPALMAASPGEKVTITCSVSSSISSSNLHWYQQKSGTSPKLWIYGTSNLASGVPVRFSGSGSGTSYSLTISSMEAEDAATYYCQQWSSYPFTFGSGTKLEIK
notes: Murine Fab, periplasmic extract
B33: P05E01 Fab (Fab, V domains shown)
VH: DVQLVESGAELVKPGASVKLSCTASGFTIKDTYIHWVKQRPEQGLEWIGEIDPANGNTKYDPKFQGKATITADTSSNTAYLQLSSLTSEDTAVYYCATYYYRYDVGGFDYWGQGTTLTVS
VL: B32 VL with E1D, Y37F, S78N, S93N, F97L, S101A, I107L
notes: as for B32

Changes are numbered by the printed parent chain. Names and notes keep the numbering of the source.

The first experiment concerns the target T1, recombinant human LAG-3 (human, UniProt P18627 23-450, limits assumed).
T1 sequence (looked up): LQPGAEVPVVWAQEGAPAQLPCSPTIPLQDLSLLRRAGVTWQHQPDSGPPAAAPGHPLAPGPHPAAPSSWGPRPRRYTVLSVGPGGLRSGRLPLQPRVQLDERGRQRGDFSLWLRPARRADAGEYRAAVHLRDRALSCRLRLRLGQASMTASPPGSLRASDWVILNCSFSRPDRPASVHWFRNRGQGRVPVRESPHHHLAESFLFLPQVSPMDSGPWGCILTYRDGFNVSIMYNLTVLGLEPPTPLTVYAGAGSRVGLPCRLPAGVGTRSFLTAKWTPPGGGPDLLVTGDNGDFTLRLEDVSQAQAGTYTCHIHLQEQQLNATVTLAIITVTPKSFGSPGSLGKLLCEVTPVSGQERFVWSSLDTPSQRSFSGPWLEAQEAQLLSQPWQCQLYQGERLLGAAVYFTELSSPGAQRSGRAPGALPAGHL
Description: surface plasmon resonance (data not shown).
With B1, the binding result is on record as “binds”.

For B2, the binding result is recorded as “binds”.

For the molecule B3, the binding result is “binds”.

In the case of B4, the binding result is given as “binds”.

B5: the binding result is recorded as “binds”.

Consider B6, for which the binding result is listed as “binds”.

Regarding B7, the binding result is “binds”.

For B8, the binding result is listed as “binds”.

As to B9, the binding result is on record as “binds”.

For B10, the binding result was “binds”.

As to B11, the binding result is “binds”.

For B12, the binding result was “binds”.

Consider B13, for which the binding result is reported as “binds”.

Take B14: the binding result is given as “binds”.

Regarding B15, the binding result is “binds”.

In the case of B16, the binding result is “binds”.

B17: the binding result is listed as “binds”.

Turning to B18, the binding result is given as “binds”.

Take B19: the binding result is listed as “binds”.

For the molecule B20, the binding result is reported as “binds”.

For B21, the binding result was “binds”.

On to B22, for which the binding result was “binds”.

B23: the binding result is “binds”.

For B24, the binding result is “binds”.

Take B25: the binding result was “binds”.

Turning to B26, the binding result is “binds”.

As for B27, the binding result is “binds”.

Turning to B28, the binding result is reported as “binds”.

On to B29, for which the binding result is given as “binds”.

Take B30: the binding result was “binds”.

For B31, the binding result is listed as “binds”.

In the next experiment the target is T2, human LAG-3 (human, UniProt P18627 23-450, limits assumed).
T2 construct: Selections used human LAG-3-Fc, human LAG-3-6His, a 30 aa LAG-3 peptide and/or cells with cynomolgus LAG-3; also called CD223
T2 sequence (looked up): T1 sequence (looked up)
Nature of the experiment: Fab phage display selection; periplasmic extracts screened by ELISA or flow cytometry. From the text:
Anti-LAG-3 antibodies were identified by generation and selection of an immunized Fab phage display library. […] Per mouse, a Fab library was then generated by random-primed cDNA using total RNA as a template to amplify variable regions from mouse antibody genes. Heavy and kappa chain amplicons were combined and cloned into phagemid vectors. […] The 30 amino acid human LAG-3 peptide is a biotinylated peptide comprising the amino acid sequence of […] (SEQ ID NO: 199). Periplasmic extracts of selected Fab clones were then screened by ELISA or flow cytometry. Antibody sequencing and off-rate analysis were then performed on anti-LAG-3 Fabs.
(An ELISA detects its analyte on a solid surface through an enzyme-linked reagent.)
Consider B32, for which the binding result is on record as “binds”.

B33: the binding result was “binds”.
